Test results as given in article PMC7430637 (2020).

What was measured:
[1] = molecular target: T1, recombinant mUHRF1 V1 (mouse, UniProt Q8VDF2 1-782); test: MST
T1 chain: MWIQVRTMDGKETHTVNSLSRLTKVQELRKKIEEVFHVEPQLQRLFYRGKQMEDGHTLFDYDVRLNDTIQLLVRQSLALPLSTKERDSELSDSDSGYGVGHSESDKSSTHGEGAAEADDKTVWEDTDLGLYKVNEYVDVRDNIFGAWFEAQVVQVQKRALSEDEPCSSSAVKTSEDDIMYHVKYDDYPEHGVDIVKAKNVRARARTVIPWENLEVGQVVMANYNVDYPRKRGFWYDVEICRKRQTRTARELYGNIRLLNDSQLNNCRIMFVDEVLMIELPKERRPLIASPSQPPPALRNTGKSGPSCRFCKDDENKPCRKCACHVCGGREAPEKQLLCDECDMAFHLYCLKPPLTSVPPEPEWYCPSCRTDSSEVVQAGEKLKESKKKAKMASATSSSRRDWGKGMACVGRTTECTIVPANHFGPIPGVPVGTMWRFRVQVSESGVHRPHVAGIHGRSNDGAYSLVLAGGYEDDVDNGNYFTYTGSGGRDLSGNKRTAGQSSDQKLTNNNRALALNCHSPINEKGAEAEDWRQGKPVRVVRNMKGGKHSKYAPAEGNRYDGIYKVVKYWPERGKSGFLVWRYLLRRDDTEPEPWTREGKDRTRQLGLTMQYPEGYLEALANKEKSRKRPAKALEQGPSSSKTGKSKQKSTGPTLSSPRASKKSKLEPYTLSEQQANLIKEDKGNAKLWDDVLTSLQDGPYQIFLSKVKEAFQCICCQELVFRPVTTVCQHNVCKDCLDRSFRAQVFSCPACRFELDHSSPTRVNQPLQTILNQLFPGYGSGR

[2] = molecular target: T2, recombinant mUHRF1 V2 (mouse); test: MST
T2 chain: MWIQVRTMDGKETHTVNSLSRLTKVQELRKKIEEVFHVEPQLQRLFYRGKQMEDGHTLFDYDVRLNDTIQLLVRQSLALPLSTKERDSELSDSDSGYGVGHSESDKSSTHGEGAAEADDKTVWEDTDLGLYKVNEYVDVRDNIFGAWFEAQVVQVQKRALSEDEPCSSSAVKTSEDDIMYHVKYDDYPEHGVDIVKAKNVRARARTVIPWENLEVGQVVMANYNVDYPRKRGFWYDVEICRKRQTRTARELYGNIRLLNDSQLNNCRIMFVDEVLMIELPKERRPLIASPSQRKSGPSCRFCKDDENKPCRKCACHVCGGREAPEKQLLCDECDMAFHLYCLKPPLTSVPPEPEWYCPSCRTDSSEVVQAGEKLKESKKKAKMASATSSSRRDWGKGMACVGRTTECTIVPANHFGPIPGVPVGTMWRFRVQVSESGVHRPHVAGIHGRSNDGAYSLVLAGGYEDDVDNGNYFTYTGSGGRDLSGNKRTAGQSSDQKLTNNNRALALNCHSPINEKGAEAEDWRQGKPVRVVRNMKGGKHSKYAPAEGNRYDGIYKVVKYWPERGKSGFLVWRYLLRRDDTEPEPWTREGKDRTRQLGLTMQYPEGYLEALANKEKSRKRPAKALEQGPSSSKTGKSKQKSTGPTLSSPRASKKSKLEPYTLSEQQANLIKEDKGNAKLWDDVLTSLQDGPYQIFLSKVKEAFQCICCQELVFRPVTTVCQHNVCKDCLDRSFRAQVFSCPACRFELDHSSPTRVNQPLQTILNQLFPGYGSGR

[3] = molecular target: T3, recombinant hUHRF1 (human, UniProt Q96T88-1 1-793); test: MST
T3 chain: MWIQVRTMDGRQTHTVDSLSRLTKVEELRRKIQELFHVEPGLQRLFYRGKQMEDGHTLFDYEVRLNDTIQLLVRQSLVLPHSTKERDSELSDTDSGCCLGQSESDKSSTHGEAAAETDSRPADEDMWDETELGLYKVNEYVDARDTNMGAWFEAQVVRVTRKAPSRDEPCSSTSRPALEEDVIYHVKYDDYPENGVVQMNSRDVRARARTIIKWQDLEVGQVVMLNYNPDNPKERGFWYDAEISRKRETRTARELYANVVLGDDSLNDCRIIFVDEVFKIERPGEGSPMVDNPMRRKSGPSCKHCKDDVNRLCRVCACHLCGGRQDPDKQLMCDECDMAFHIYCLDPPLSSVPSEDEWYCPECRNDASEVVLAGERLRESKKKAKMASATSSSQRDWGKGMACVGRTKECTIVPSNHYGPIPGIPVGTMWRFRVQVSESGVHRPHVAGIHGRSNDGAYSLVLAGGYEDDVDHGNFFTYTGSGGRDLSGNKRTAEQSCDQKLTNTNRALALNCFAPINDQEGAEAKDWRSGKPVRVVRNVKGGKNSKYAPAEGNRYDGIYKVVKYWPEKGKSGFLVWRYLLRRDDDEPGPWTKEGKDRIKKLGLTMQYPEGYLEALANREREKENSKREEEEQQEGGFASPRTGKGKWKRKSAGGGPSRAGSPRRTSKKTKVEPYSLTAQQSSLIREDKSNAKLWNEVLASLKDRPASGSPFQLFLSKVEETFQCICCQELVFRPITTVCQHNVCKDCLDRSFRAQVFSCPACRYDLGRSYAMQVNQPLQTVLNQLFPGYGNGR

[4] = molecular target: T1, recombinant mUHRF1 V1; test: MST; + 100-fold molar excess PI5P
[5] = molecular target: T2, recombinant mUHRF1 V2; test: MST; + 100-fold molar excess PI5P
[6] = molecular target: T3, recombinant hUHRF1; test: MST; + 100-fold molar excess PI5P

Kd [1]: 1400 nM
Kd [2]: 4000 nM
Kd [3]: 1500 nM
Kd [4]: 2600 nM
Kd [5]: 8100 nM
Kd [6]: 80 nM
B1: H3K9me3 peptide (titrated in MST) (peptide)
chain: ARTKQTARKSTGGKA
modifications: trimethyl-lysine at K9
